Assay results published in patent US20090099091A1 (Stanford University, published 2009).

Assays:
Mushroom tyrosinase [1] = target: T1, Mushroom tyrosinase (mushroom, UniProt C7FF04 1-392); assay: cell-based or functional assay
Mushroom tyrosinase [2] = target: T1, Mushroom tyrosinase; assay: cell-based or functional assay; remark: listed apart in the source

T1 sequence (C7FF04 1-392): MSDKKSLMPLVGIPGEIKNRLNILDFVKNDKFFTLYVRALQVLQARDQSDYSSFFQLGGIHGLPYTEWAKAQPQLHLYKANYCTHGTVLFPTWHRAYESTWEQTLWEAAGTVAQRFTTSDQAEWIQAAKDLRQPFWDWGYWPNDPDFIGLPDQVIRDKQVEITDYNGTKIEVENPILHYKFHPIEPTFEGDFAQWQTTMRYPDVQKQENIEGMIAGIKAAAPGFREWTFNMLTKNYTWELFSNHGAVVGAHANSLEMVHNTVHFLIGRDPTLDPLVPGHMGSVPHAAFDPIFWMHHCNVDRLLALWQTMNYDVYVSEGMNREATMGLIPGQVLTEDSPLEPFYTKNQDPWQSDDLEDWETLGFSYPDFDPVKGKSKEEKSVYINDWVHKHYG

## YRSRKYSSWY [YRSRKYSSWY (YR peptide)]
Mushroom tyrosinase [1]
  IC50 (inhibition of mushroom tyrosinase): 40 µM
Mushroom tyrosinase [2]
  IC50 (inhibition of mushroom tyrosinase, dopachrome absorbance at 475 nM): 40 µM

## KFEKKFEK [KFEKKFEK (KF peptide)]
Mushroom tyrosinase [2]
  IC50 (inhibition of mushroom tyrosinase, dopachrome absorbance at 475 nM): 3600 µM
